Assay results reported in publication PMC11599015 (Viruses, 2024).

Biological target: recombinant circular RABV N10-RNA complex purified from insect cells (phosphorylated) (rabies virus (RABV), UniProt Q8JXF6 1-450)
Test: SPR
Conditions: both partners purified

Sequence of recombinant circular RABV N10-RNA complex purified from insect cells (phosphorylated) (Q8JXF6 whole entry, one chain of several): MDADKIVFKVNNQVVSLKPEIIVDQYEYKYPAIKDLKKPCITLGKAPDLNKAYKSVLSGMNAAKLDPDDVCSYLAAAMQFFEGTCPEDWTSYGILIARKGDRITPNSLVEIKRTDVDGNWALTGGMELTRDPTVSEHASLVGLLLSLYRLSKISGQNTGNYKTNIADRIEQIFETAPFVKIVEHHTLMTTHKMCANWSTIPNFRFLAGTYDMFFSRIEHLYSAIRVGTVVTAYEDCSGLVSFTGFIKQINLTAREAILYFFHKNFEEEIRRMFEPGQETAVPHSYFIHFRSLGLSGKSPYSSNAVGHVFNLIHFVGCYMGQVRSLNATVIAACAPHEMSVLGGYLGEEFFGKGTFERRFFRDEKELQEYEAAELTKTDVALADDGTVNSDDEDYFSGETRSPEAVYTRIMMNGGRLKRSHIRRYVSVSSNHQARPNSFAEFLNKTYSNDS

B1: C-terminal domain of RABV phosphoprotein P (PCTD) (domain or fragment)
chain: WSATNEEDDLSVEAEIAHQIAESFSKKYKFPSRSSGIFLYNFEQLKMNLDDIVKEAKNVPGVTRLAHDGSKIPLRCVLGWVALANSKKFQLLVEADKLSKIMQDDLNRYTSC
Kd: 160 ± 20 nM
stoichiometry N: 2 ± 0.2
